From article PMC8852293 (Nature microbiology, 2020)

Biological target: the molecule itself
Experiment: ITC

B1: HDP1 DNA-binding domain (HDP1 aa2991-3078) (domain or fragment, P. falciparum, UniProt A0A2I0C2C6 2991-3078, looked up)
chain: SEVQVSNINTPSSYNISARRRRRIGNNGPPSAEELNRLLNIQHLTIPEIATIYGVHRTTIARWCNIRNITSNSMNNSPGKRRKNEDNK
- binding result: binds
